The assay has as its target axonemes (purified from sea urchin sperm flagella) (sea urchin). Briefly: single-molecule fluorescence microscopy.

As for “DNA-kinesin monomer K336 333C_10 bp (from UniProt P33176 1-336)”, the dwell time worked out at 170 ms.
